Target: T1, MUC1-p120 complexes (Homo sapiens, UniProt O60716)
T1 sequence (O60716 1-968): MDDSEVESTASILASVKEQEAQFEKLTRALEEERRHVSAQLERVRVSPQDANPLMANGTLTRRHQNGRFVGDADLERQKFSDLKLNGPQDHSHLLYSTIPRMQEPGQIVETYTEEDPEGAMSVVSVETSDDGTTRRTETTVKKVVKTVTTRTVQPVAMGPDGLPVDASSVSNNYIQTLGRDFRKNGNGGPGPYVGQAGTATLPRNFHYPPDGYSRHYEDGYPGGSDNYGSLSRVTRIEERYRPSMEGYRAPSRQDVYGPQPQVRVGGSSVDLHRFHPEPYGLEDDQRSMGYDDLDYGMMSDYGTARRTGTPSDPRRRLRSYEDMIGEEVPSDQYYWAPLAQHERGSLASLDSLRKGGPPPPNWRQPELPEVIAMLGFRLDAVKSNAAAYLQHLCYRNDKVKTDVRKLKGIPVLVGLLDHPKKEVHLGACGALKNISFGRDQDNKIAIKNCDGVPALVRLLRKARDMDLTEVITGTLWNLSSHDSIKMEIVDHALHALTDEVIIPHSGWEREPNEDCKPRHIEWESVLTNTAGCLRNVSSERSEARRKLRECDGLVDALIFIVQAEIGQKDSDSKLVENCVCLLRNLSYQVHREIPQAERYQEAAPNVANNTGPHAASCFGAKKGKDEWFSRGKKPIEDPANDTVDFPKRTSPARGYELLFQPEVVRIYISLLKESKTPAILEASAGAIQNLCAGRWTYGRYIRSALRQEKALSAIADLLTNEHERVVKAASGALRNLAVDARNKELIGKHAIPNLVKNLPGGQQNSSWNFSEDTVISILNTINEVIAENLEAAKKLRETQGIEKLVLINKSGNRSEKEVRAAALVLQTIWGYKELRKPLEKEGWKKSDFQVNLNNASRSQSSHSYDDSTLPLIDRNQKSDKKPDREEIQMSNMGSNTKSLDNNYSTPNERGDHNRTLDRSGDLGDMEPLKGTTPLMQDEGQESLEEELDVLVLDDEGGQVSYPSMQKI
Assay: Inhibition of MUC1/CD binding to GST-p120 by peptides (glutathione bead precipitation, anti-MUC1/CD immunoblot)
Settings: peptide incubated with MUC1/CD and GST-p120; immunoblot with anti-MUC1/CD (FIG. 7C)
Description: FIG. 7C is a pair of photographs of immunoblots. In the table above the immunoblots is indicated the mixtures of MUC1/CD, GST-p120, and GST which were incubated in the absence of inhibitor peptide (first and fourth lanes of both immunoblots) or in the presence of either a peptide with the amino acid sequence […] (SEQ ID NO:7) or a peptide with the amino acid sequence […] (SEQ ID NO:8). The four mixtures were incubated with glutathione-Sepharose 4B™ beads and proteins precipitated by the beads were subjected to immunoblot analysis with anti-MUC1/CD (“IB: anti-MUC1/CD”) (top immunoblot) or anti-p120 (“IB: anti-p120”) ([…]). The positions of MUC1/CD and p120 on the immunoblots are indicated.
To identify the site in MUC1/CD that binds to p120, full-length MUC1/CD and the N- and C-terminal fragments (FIG. 7A) were incubated with purified GST-p120. […] To further localize the site, two peptides from the overlapping region were prepared. […] These findings indicate that p120 interacts with the […] site (SEQ ID NO:7) in MUC1.

## MSEYPTYHTH (listed as Homo sapiens) [peptide from the MUC1/CD region common to the N- and C-terminal fragments]
  inhibition of the formation of MUC1-p120 complexes: inhibits the formation of MUC1-p120 complexes

Source: patent US7745109B2, “Regulation of cell growth by MUC1” (Dana-Farber Cancer Insitute, Inc., priority 2003, dated 2010)
